Results as given in article PMC6588604.

Target: NLuc-GhBOP1 (Gossypium hirsutum)

GUS staining intensity from GhPR1pro:GUS in tobacco leaves: 35S:GhTGA3 + 35S:GhBOP1 + reporter against 35S:GhTGA3 + reporter: 2 fold
Substance: CLuc-GhTGA3 (natural protein)
